The record followed here is US20180355003A1.

Test [1] deals with His-tagged IDO1 human recombinant protein (71182, BPS Biosciences) (UniProt P14902). The test can be described thus: ELISA. A general note: In an ELISA, binding on a coated surface is turned into a signal by an enzyme label.
The target in test [2] is Human IDO1 (UniProt P14902). The test can be described thus: ELISA.

pEC50: −log10 of the molar value.

Human IDO1, sequence (P14902 2-403): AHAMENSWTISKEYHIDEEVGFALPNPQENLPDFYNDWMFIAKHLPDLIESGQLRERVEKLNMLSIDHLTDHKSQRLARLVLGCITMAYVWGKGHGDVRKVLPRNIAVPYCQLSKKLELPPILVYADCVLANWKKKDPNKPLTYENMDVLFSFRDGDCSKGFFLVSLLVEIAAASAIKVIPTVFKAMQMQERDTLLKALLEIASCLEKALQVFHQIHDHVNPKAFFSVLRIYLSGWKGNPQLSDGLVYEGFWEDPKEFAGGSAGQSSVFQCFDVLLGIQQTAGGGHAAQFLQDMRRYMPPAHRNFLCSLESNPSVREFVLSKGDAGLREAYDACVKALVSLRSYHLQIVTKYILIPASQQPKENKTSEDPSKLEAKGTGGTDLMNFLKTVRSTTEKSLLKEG
His-tagged IDO1 human recombinant protein (71182, BPS Biosciences), sequence (P14902 2-403): as above

Regarding Biotin-PEG3-Cy(nlf(Me-Trp)a), in test [1], the pEC50 (commonly −log10 of the EC50, conventionally taken in molar units) is 6.98.

In the case of w--ray, the pEC50 in test [2] is 7.10.

In the case of ww(F-Phe), the pEC50 in test [2] was 7.02.

The substance yray gave a pEC50 in test [2] of 6.95.
